Reference: a protein production outcome set (Wang et al. 2014)

Test: label from the status in PepcDB records

Protein production, not failed:
MSSKIFCKSWGAEYIAADVVRFRLWATGQQKVMLRLAGKDQEMQANGDGWFTLDVAGVTPGTEYNFVLSDGMVVPDPASRAQKTDVNGPSYVVDPGSYTWRNTGWKGSRWEQAVVYEMHTGTFTPEGTFRAAIAKLPYLAELGVTVIEVMPVAQFGGERGWGYDGVLLYAPHSAYGTPDDFKAFIDAAHGYGLSVVLDIVLNHFGPEGNYLPLLAPAFFHKERMTPWGNGIAYDVDAVRRYIIEAPLYWLTEYHLDGLRFDAIDQIEDSSARHVLVEIAQRIREDITDRPIHLTTEDSRNIISLHPRDQDGNAPLFTAEWNDDFHNAVHVFATGETQAYYNDFADAPEKHLARALAEGFAYQGEISPQTGEPRGVKSTGQPPVAFVDFIQNHDQVGNRAQGDRLITLAGAERTKVLLATLLLSPHIPLLFMGEEYGESRPFLFFTDFHGDLARAVREGRAKEFADHAGENVPDPNAPETFQRSKLNWKQQHSEEGKAWLAFTRELLLLRQKHIVPLLSAARESSGTVLQTAPGFIAVSWRFPGGTLSLALNISATTVLLPDLPGKTLFAWPNESTGSLSQHSLIVRLAQGESAS
MSSNASTEKQHAGGEKTVKAEPQSTSSQKDSTDDYQPNSQVTDDRTLHKVGQTFSDDKGKAVLKDIKQVNKTYKIGDVELTVKEMKLIHLRPDYSMIDYFHELTHDEEFDFVKVFVDIKNTSTKKVNVAPIALMKTNTGETFDWNKDIYLEELNGELEGGAEKSGNLGFIVNASSGHAHDKAADAEKKTKEIKWIEITTSDVFDHNHKKISDAQKIKIKFLEHHHHHH
MSSQLNHGTLPKISIVTPSYNQAQYLEATMRSILDQGYPDLEYIVMDGGSTDGSTEIIQKYSDRLTYWESAPDKGQADAIFRGFERATGEIFCYVNSDDLLLPGSLEMVGRWFREHPDEEWVVGGTILIDGLGIPIIRSRRGLPEADLGVKVTFKRLLLHNCGGFHQPASFWRRSAFEQAGGFDRTLRFCFDYDLFFRLAKRRPSGRIRSFLAAFRYHPASKTSTLESVFREENETLWRRYGRYLYSENQIRNFAHKQTTRDMWNNRIIKLGFYLKILNVSNAIGSLEHHHHHH

Protein production, failed:
MSSCCGPASPASSGPRTRRPRTATAQGDRHLFFAVYTIVPTDAYFGDAAVCFPPARPHMPIRRSLTIALFLLFPALGSGCQSTAPSTSSPSATEDAPAPLIVISIDGLRWDYLDRHEAPALSRIAEDGAHVDHLTPVFPTKTFPNHYSAVTGLYPSRHGIIANTMYDPAMDASFSLSDREAVMNPDWWGGEPIWVTAEQQGRTAATYFWPGSEAPVRGTRPTEWFEYDGSVPGTTRVDQALQWLDRPADTRPDLITLYFSRVDTKGHRHGPRSDSVATALREVDGFIQRLLDGLAARGLADAVNVMVTGDHGMSPTSRDRTIVLDDYIDPDDVRLTARNPVAMMEPRPGIPADSVVTALDQAPHLSAYRRGTLPDTLHFEGHRRIPSVIAVADDRWSIRTQAWMDENPDWTGGGTHGYDPRSENMHTLLAARGPGFRRNTTVDQLSLLHLYELMSALLDVEPAPNDGRLEAARPLLLPASARTAE
MSSEEDKITRISIEPEKQTLLDHHTEKHFTAGEIVRDIIIGVSDGLTVPFALAAGLSGANASSSIVLTAGIAEVAAGAISMGLGGYLAAKSEEDHYAREMKREQEEIVAVPETEAAEVAEILAQYGIEPHEYSPVVNALRKNPQAWLDFMMRFELGLEKPDPKRALQSAFTIAIAYVLGGFIPLLPYMLIPHAMDAVVASVVITLFALFIFGYAKGHFTGSKPLRSAFETAFIGAIASAAAFCLAKVVQH
MSSEHIDEVSGISTTGHEWDGIRELNNPLPRWWVITFYITVAWAVAYTIAYPAWPMLSSATKGVLGYSSRNAVKIELAAAEAAKGKYVAAIQQKTVSEIAADDALREFAVAAGGATFKVNCVQCHGSGAQGSKGFPNLNDDDWLWGGTTEQIQQTIAHGIRFASDPDTRQSEMPPFGDIITPEQIAQVGAYVASLSGKVQDASLIEPGAKVFGENCVACHGDNAKGNKELGAPNLTDAIWLYAPGETAIAVQVRAPKHGVMPAWIGRLGETKVKELAVYVHSLGGGE
MSSEVEQNVPCEACGCSAEMGFVIKEGDDVAEVSIFADNKVLLESEFSNYLALAKEVCADVEHSIVITEDEKELHARLKFSCSAEKLIYELKTRSLRRLEHHHHHH
MSSITADNAGQYGDSRKLAARARLHSQYTIAETAWFPWVAAQLSLKPGDRVLDVGCGPAWFWAATTGLLPADLDLTLTDLSPGMVDEAVARCSALPFGSVRGCQADAAALPFEDGAFDAVVAMHMLYHLTDPVAGIADMSRVLKPGGLLAVTTNGAGNMREIYALTTLFGSAPSDPAAEAFGYDAAERSMRSQFGNVTMSQHPASLRITEPEDVFLALTSYPPGDGAGEPQLTRFRQAIADAFSQRSGVLEVSKETALFLSRKTV
MSSLFNVNAQFWASLIDSPLKILVHILDIAIVSWLIYKFIKALAGTKVMSLVQGVVLFVLFKFVAEFLGFTTIAFLMNQVITYGVIAGVVIFAPEIRSGLERFGRTPQSFIQRQQLSDDEKLVAAFVKAVAYMSPRKIGALVSIEETQTLREYIATGIPLDADISGELLINIFIPNTPLHDGAVIVEGNKIAVSCAYLPLSESSHISKEFGTRHRAAIGLSEASDAFTFVVSEETGAISVAYKGDFIHDLSLEAFEVLLREHFIKEEPKKKNWMKQFFGGRHHV
MSSLKGKRIGFGLTGSHCTYEAVFPQIEELVNEGAEVRPVVTFNVKSTNTRFGEGAEWVKKIEDLTGYEAIDSIVKAEPLGPKLPLDCMVIAPLTGNSMSKLANAMTDSPVLMAAKATIRNNRPVVLGISTNDALGLNGTNLMRLMSTKNIFFIPFGQDDPFKKPNSMVAKMDLLPQTIEKALMHQQLQPILVENYQGND
MSSLVQSVDWLAIAPPTLAAVVGLVVLVADLFIGDHKKALLGWVSVAGLAASALLLLPLLDGDRATFCLTGDANTCSYTADHFTLAIQFLVLGGALLAALLSVTALKDADREIPEGEFWFLLLSSAAGAALLPASRDLATLIVALEVASLPAFALVGIKRGDKKSSEAALKFFLSSVTATAVSLMGVSFVYASTGTLYLTEIARKIQHVDGQLHTLAQTGVVLTLVGFAFKTAAVPFHFWVPDTYVGAPLPIAAYLSVVGKAVGFSGLILVTVVAFPSYADVWGPALAALAALTMTVGNVGALRQQATRAYSAVRLLAWSSVGQAGYLLVPIAAAAYSKDAEKAIGSTVAYALMYAAVNLGAFAVAALVGRTKVLNRVSDYRGLYASNPLAALLLGFFLLCLAGLPPGIIGLFAKVTVFSAAVDAGLGWLAVVMAVNVVIALFYYLQWTTLLFRAPEGEPEKHRVPAPLTAAIALTAVLGVALSGAPQLVLRFSDTGLF
MSSNECFKCGRSGHWARECPTGGGRGRGMRSRGRGFQFVSSSLPDICYRCGESGHLAKDCDLQEDACYNCGRGGHIAKDCKEPKREREQCCYNCGKPGHLARDCDHADEQKCYSCGEFGHIQKDCTKVKCYRCGETGHVAINCSKTSEVNCYRCGESGHLARECTIEATA
MSSNNVTTDVVSVDEQAFENAGGQAVDEDGFPVVDETPAFEAEVEQETQAKVDANHPDGIADTSEDRIHGVTLEQEERIRAREAELERISAQAELGTQDGREQRTRAVAAEGSTERRREFQQRAASVEPMADPERDDPRAELSQDELATVNTEADRLATRLDGWSRAAISRRLAEAIVDGRDLTSAVVRVFEELQTAPGGTVPIDALEDIDRKEVSVEGRVTQLWEPSSPSIAQVGLIEDESGRTKLTSWKASDAPWIEEGERVRIHGAAKNWYNGRVSVAVTGWSTLHFPERGRWWDE
MSSNPTSSVREFEYKAEMKQLLNLIVHSLYTHPEIFLRELISNASDALGKARFRMLSSDEGLDKSGDLKITITVDKESGSFVIEDTGIGMSEEELISNLGTVASSGTLGFMEALKEQQKEGQRLDANLIGQFGVGFYSVFMVTDEVTVETKSIESGLQGWRWKSSGQGSYTIEPVEREARGTRISFILKEEFREFAQEYRVEQIIKKYSNFVEYPIYIGSRQINSMTALWQRPKSELKQEEVNEFYKFIANDFKDPLDYLHVSVEGAVSFKALLFIPSEAPMELLYNQGALEKRGPQLYVKKVLIQHECRDLLPEYLRFVSGVVDTEDLPLNVSRELVQASPVMAKIKQILTTKLLGWFDTIAKEEPEKFRAFYKAFGTILKIGLNTDFTNRDKLIDLLRFETTKTVEGEYVTLKEYVGRMAEGQTEIYYHSGSSRAQMLAHPNLEYFRKRDIEVLLLSDPVDVFVIPSIFEYDKKPLKSIEKAEIDMSTVEPEGERLSAEGTVGVISLFKEVLGERVADVVESRRLVSSPVTLVSGKDALDSQFEKMMKMMNKDADMPSTKKILEINTAHPIIRNLAGKHAVGLSTDPVVRAAVTQLFESALLLEGDLESVADYVSRMNELVEAATRS
MSSPFPADTPSSNRPSNSSPPPSSIGAGFGSSSGLDSQIGSRLHFPSSSQPHVSNSQTGPFVNDSTQFSSQRLQTDGSATNDMEGNEPARSFKSRALNHVKKVDDVTGEKVREAFEQFLEDFSVQSTDTGEVEKVYRAQIEFMKIYDLNTIYIDYQHLSMRENGALAMAISEQYYRFLPFLQKGLRRVVRKYAPELLNTSDSLKRSEGDEGQADEDEQQDDDMNGSSLPRDSGSSAAPGNGTSAMATRSITTSTSPEQTERVFQISFFNLPTVHRIRDIRSEKIGSLLSISGTVTRTSEVRPELYKASFTCDMCRAIVDNVEQSFKYTEPTFCPNPSCENRAFWTLNVTRSRFLDWQKVRIQENANEIPTGSMPRTLDVILRGDSVERAKPGDRCKFTGVEIVVPDVTQLGLPGVKPSSTLDTRGISKTTEGLNSGVTGLRSLGVRDLTYKISFLACHVISIGSNIGASSPDANSNNRETELQMAANLQANNVYQDNERDQEVFLNSLSSDEINELKEMVKDEHIYDKLVRSIAPAVFGHEAVKKGILLQMLGGVHKSTVEGIKLRGDINICVVGDPSTSKSQFLKYVVGFAPRSVYTSGKASSAAGLTAAVVRDEEGGDYTIEAGALMLADNGICCIDEFDKMDISDQVAIHEAMEQQTISIAKAGIHATLNARTSILAAANPVGGRYNRKLSLRGNLNMTAPIMSRFDLFFVILDDCNEKIDTELASHIVDLHMKRDEAIEPPFSAEQLRRYIKYARTFKPILTKEARSYLVEKYKELRKDDAQGFSRSSYRITVRQLESMIRLSEAIARANCVDEITPSFIAEAYDLLRQSIIRVDVDDVEMDEEFDNIESQSHAASGNNDDNDDGTGSGVITSEPPADIEEGQSEATARPGTSEKKKTTVTYDKYVSMMNMIVRKIAEVDREGAEELTAVDIVDWYLLQKENDLGSLAEYWEERRLAFKVIKRLVKDRILMEIHGTRHNLRDLENEENENNKTVYVIHPNCEVLDQLEPQDSS
MSSPSLSPHYQKMLDDLDGQVLQLDRQVFRRLARLGYQPQVIFDVGASNSGWSYYIKQVVTEADFYLFEPLVDHVPDYQGLMEETLRVYPSFHLYKYALGDRDGTITVNVFDDPASSTTLPMTEGGPSINAVQVPLLTLDSALVKLGLPQPQVIKIDTQGNELSILRGAAQTLAKVDVLFLECWLYRGYGPKTPLLTEIAHWLLPFNFRLWDVSEPYRGPQGELTTLDCIFINTAAGLVPNWYY
MSSQELVTLNVGGKIFTTRFSTIKQFPASRLARMLDGRDQEFKMVGGQIFVDRDGDLFSFILDFLRTHQLLLPTEFSDYLRLQREALFYELRSLVDLLNPYLLQPRPALVEVHFLSRNTQAFFRVFGSCSKTIEMLTGRITVFTEQPSAPTWNGNFFPPQMTLLPLPPQRPSYHDLVFQCGSDSTTDNQTGVRYVSIKPDNRKLANGTNVLGLLIDTLLKEGFHLVSTRTVSSEDKTECYSFERIKSPEVLITNETPKPETIIIPEQSQIKK
MSSRCLGCGTKFDSEAGRPRCPACRWEPEEIGGIAAYAPQFANQGGGFEASYFKVLSELEATNFWFRSRNDLILWALRKYHPKFRSFLEIGCGTGFVLSGVTGKYPEAEIFGSEIFIEGLRFASQRLPNARLMQMDARAIPFAEEFEAIGAFDVLEHIEEDETVLQQMHAALKPKGTLLVTVPQHPWLWSPLDDYAHHCRRYTANELSRKVTAAGFTILRNTSFVSFLLPAMLASRLLSRNKSVDEIDVRTEMQLPSLLNNAFRWILRAESALIGTGFDFPLGGSRLLVARKM
